Patent US20250163127A1

Tests used:
human PD-1 (human) = human PD-1 (human) (UniProt Q15116)
CD28 (human) = CD28 (human) (UniProt P10747); experiment: flow cytometry, transfected cells
[1] = target: CTLA-4 (Homo sapiens (Human)) (UniProt P16410); experiment: flow cytometry, transfected cells
[2] = substrate: ICOS (Homo sapiens (Human)) (UniProt Q9Y6W8); experiment: flow cytometry, transfected cells
Chain of ICOS (Homo sapiens (Human)) (Q9Y6W8 21-199 limits assumed): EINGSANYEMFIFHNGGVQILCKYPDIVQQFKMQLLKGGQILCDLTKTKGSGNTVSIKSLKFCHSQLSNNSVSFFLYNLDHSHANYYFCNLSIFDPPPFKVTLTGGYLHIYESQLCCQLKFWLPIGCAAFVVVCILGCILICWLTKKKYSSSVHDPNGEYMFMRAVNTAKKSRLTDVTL

Chain of CTLA-4 (Homo sapiens (Human)) (P16410 36-223): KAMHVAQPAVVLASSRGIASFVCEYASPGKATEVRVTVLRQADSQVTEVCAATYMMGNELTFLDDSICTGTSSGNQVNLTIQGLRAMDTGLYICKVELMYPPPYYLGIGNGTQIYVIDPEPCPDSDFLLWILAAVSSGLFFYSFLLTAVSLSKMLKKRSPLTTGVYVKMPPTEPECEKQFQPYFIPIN
Chain of human PD-1 (human) (Q15116 25-288): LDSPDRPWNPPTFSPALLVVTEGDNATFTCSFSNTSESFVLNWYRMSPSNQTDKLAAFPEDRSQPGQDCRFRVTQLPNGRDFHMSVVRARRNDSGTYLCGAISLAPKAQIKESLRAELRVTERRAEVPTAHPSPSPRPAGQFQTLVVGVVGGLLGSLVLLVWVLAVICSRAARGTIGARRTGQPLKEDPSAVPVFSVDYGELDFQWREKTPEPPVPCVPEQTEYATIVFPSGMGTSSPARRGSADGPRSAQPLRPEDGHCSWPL

Binder	IFN gamma levels pg/mL (MLR) (human PD-1 (human)) [pg/mL]	also measured
variant PD-L2 IgV H15Q/S67L/Q72H/R76G/V89D Fc fusion (Fc fusion) LFTVTVPKELYIIEQGSNVTLECNFDTGSHVNLGAITASLQKVENDTSPHRERATLLEEQLPLGKALFHIPHVQVGDEGQYQCIIIYGDAWDYKYLTLKVKA	1060	–
variant PD-L2 IgV H15Q/N18D/T47A/Q72H/V73A/R76G/I86T/V89D Fc fusion (Fc fusion) LFTVTVPKELYIIEQGSDVTLECNFDTGSHVNLGAITASLQKVENDASPHRERATLLEEQLPLGKASFHIPHAQVGDEGQYQCIITYGDAWDYKYLTLKVKA	1070	–
variant PD-L2 IgV H15Q/T47A/S67L/Q82R/V89D Fc fusion (Fc fusion) LFTVTVPKELYIIEQGSNVTLECNFDTGSHVNLGAITASLQKVENDASPHRERATLLEEQLPLGKALFHIPQVQVRDEGQYRCIIIYGDAWDYKYLTLKVKA	1200	–
variant PD-L2 IgV H15Q/L33P/T47A/S67L/P71S/V89D Fc fusion (Fc fusion) LFTVTVPKELYIIEQGSNVTLECNFDTGSHVNPGAITASLQKVENDASPHRERATLLEEQLPLGKALFHISQVQVRDEGQYQCIIIYGDAWDYKYLTLKVKA	1290	–
variant PD-L2 IgV H15Q/L33H/S67L/R76G/Q82R/V89D Fc fusion (Fc fusion) LFTVTVPKELYIIEQGSNVTLECNFDTGSHVNHGAITASLQKVENDTSPHRERATLLEEQLPLGKALFHIPQVQVGDEGQYRCIIIYGDAWDYKYLTLKVKA	1500	–
variant PD-L2 IgV F2L/H15Q/D46E/T47A/Q72H/R76G/Q82R/V89D Fc fusion (Fc fusion) LLTVTVPKELYIIEQGSNVTLECNFDTGSHVNLGAITASLQKVENEASPHRERATLLEEQLPLGKASFHIPHVQVGDEGQYRCIIIYGDAWDYKYLTLKVKA	1170	–
variant PD-L2 IgV I13V/H15Q/T47A/E58G/S67L/Q82R/V89D Fc fusion (Fc fusion) LFTVTVPKELYIVEQGSNVTLECNFDTGSHVNLGAITASLQKVENDASPHRERATLLGEQLPLGKALFHIPQVQVRDEGQYRCIIIYGDAWDYKYLTLKVKA	836	–
variant PD-L2 IgV I13V/H15Q/Q82R/V89D Fc fusion (Fc fusion) LFTVTVPKELYIVEQGSNVTLECNFDTGSHVNLGAITASLQKVENDTSPHRERATLLEEQLPLGKASFHIPQVQVRDEGQYRCIIIYGDAWDYKYLTLKVKA	1600	–
variant PD-L2 IgV I13V/S67L/Q82R/V89D Fc fusion (Fc fusion) LFTVTVPKELYIVEHGSNVTLECNFDTGSHVNLGAITASLQKVENDTSPHRERATLLEEQLPLGKALFHIPQVQVRDEGQYRCIIIYGDAWDYKYLTLKVKA	1370	–
variant PD-L2 IgV I12V/I13V/H15Q/T47A/Q82R/V89D Fc fusion (Fc fusion) LFTVTVPKELYVVEQGSNVTLECNFDTGSHVNLGAITASLQKVENDASPHRERATLLEEQLPLGKASFHIPQVQVRDEGQYRCIIIYGDAWDYKYLTLKVKA	1530	–
variant PD-L2 IgV H15Q/T47A/S67L/R76G/Q82R/V89D Fc fusion (Fc fusion) LFTVTVPKELYIIEQGSNVTLECNFDTGSHVNLGAITASLQKVENDASPHRERATLLEEQLPLGKALFHIPQVQVGDEGQYRCIIIYGDAWDYKYLTLKVKA	1100	–
variant PD-L2 IgV I13V/H15Q/T47A/S67L/Q72H/R76G/Q82R/V89D Fc fusion (Fc fusion) LFTVTVPKELYIVEQGSNVTLECNFDTGSHVNLGAITASLQKVENDASPHRERATLLEEQLPLGKALFHIPHVQVGDEGQYRCIIIYGDAWDYKYLTLKVKA	1560	–
variant PD-L2 IgV H15Q/S39I/E44D/Q72H/V75G/R76G/Q82R/V89D Fc fusion (Fc fusion) LFTVTVPKELYIIEQGSNVTLECNFDTGSHVNLGAITAILQKVDNDTSPHRERATLLEEQLPLGKASFHIPHVQGGDEGQYRCIIIYGDAWDYKYLTLKVKA	941	–
variant PD-L2 IgV I13V/H15Q/T47A/Q72H/R76G/I86T Fc fusion (Fc fusion) LFTVTVPKELYIVEQGSNVTLECNFDTGSHVNLGAITASLQKVENDASPHRERATLLEEQLPLGKASFHIPHVQVGDEGQYQCIITYGVAWDYKYLTLKVKA	1090	–
variant PD-L2 IgV I13V/H15Q/Q82R Fc fusion (Fc fusion) LFTVTVPKELYIVEQGSNVTLECNFDTGSHVNLGAITASLQKVENDTSPHRERATLLEEQLPLGKASFHIPQVQVRDEGQYRCIIIYGVAWDYKYLTLKVKA	1430	–
variant PD-L2 IgV I13V/H15Q/E44V/T47A/Q82R/V89D Fc fusion (Fc fusion) LFTVTVPKELYIVEQGSNVTLECNFDTGSHVNLGAITASLQKVVNDASPHRERATLLEEQLPLGKASFHIPQVQVRDEGQYRCIIIYGDAWDYKYLTLKVKA	1270	–

Binder	IFN gamma levels pg/mL (MLR) (human PD-1 (human)) [pg/mL]	also measured
variant PD-L2 IgV I13V/H15Q/S39I/E44D/S67L Fc fusion (Fc fusion) LFTVTVPKELYIVEQGSNVTLECNFDTGSHVNLGAITAILQKVDNDTSPHRERATLLEEQLPLGKALFHIPQVQVRDEGQYQCIIIYGVAWDYKYLTLKVKA	1260	–
variant PD-L2 IgV E44D/S67L/Q72H/Q82R/V89D Fc fusion (Fc fusion) LFTVTVPKELYIIEHGSNVTLECNFDTGSHVNLGAITASLQKVDNDTSPHRERATLLEEQLPLGKALFHIPHVQVRDEGQYRCIIIYGDAWDYKYLTLKVKA	1280	–
variant PD-L2 IgV I13V/H15Q/I36V/T47A/S67L/V89D Fc fusion (Fc fusion) LFTVTVPKELYIVEQGSNVTLECNFDTGSHVNLGAVTASLQKVENDASPHRERATLLEEQLPLGKALFHIPQVQVRDEGQYQCIIIYGDAWDYKYLTLKVKA	1360	–
variant PD-L2 IgV H15Q/V31M/S67L/Q82R/V89D Fc fusion (Fc fusion) LFTVTVPKELYIIEQGSNVTLECNFDTGSHMNLGAITASLQKVENDTSPHRERATLLEEQLPLGKALFHIPQVQVRDEGQYRCIIIYGDAWDYKYLTLKVKA	1210	–
variant PD-L2 IgV I13V/H15Q/V31A/N45S/Q82R/V89D Fc fusion (Fc fusion) LFTVTVPKELYIVEQGSNVTLECNFDTGSHANLGAITASLQKVESDTSPHRERATLLEEQLPLGKASFHIPQVQVRDEGQYRCIIIYGDAWDYKYLTLKVKA	1720	–
variant PD-L2 IgV I13V/H15Q/L33F/T47A/Q82R/V89D Fc fusion (Fc fusion) LFTVTVPKELYIVEQGSNVTLECNFDTGSHVNFGAITASLQKVENDASPHRERATLLEEQLPLGKASFHIPQVQVRDEGQYRCIIIYGDAWDYKYLTLKVKA	1470	–
variant PD-L2 IgV I13V/H15Q/Q72H/R76G/I86T Fc fusion (Fc fusion) LFTVTVPKELYIVEQGSNVTLECNFDTGSHVNLGAITASLQKVENDTSPHRERATLLEEQLPLGKASFHIPHVQVGDEGQYQCIITYGVAWDYKYLTLKVKA	1220	–
variant PD-L2 IgV I13V/H15Q/T47A/H69L/R76G/V89D Fc fusion (Fc fusion) LFTVTVPKELYIVEQGSNVTLECNFDTGSHVNLGAITASLQKVENDASPHRERATLLEEQLPLGKASFLIPQVQVGDEGQYQCIIIYGDAWDYKYLTLKVKA	1080	–
variant PD-L2 IgV I13V/H15Q/V89D Fc fusion (Fc fusion) LFTVTVPKELYIVEQGSNVTLECNFDTGSHVNLGAITASLQKVENDTSPHRERATLLEEQLPLGKASFHIPQVQVRDEGQYQCIIIYGDAWDYKYLTLKVKA	1120	–
variant PD-L2 IgV I13V/H15Q/T47A/Q82R Fc fusion (Fc fusion) LFTVTVPKELYIVEQGSNVTLECNFDTGSHVNLGAITASLQKVENDASPHRERATLLEEQLPLGKASFHIPQVQVRDEGQYRCIIIYGVAWDYKYLTLKVKA	1700	–
variant PD-L2 IgV I13V/H15Q/R76G/D77N/Q82R/V89D Fc fusion (Fc fusion) LFTVTVPKELYIVEQGSNVTLECNFDTGSHVNLGAITASLQKVENDTSPHRERATLLEEQLPLGKASFHIPQVQVGNEGQYRCIIIYGDAWDYKYLTLKVKA	1190	–
variant PD-L2 IgV H15Q/Q72H/Q74R/R76G/I86T Fc fusion (Fc fusion) LFTVTVPKELYIIEQGSNVTLECNFDTGSHVNLGAITASLQKVENDTSPHRERATLLEEQLPLGKASFHIPHVRVGDEGQYQCIITYGVAWDYKYLTLKVKA	934	–
ICOSL ECD-Fc N84Q/N119Q/N207Q (Fc fusion) DTQEKEVRAMVGSDVELSCACPEGSRFDLNDVYVYWQTSESKTVVTYHIPQNSSLENVDSRYRNRALMSPAGMLRGDFSLRLFQVTPQDEQKFHCLVLSQSLGFQEVLSVEVTLHVAAQFSVPVVSAPHSPSQDELTFTCTSINGYPRPNVYWINKTDNSLLDQALQNDTVFLNMRGLYDVVSVLRIARTPSVNIGCCIENVLLQQQLTVGSQTGNDIGERDKITENPVSTGEKNAAT	–	MFI (CD28 (human)): 569 MFI; MFI parental ratio (CD28 (human)): 0.38 fold; MFI [1]: 640 MFI; MFI parental ratio [1]: 0.17 fold; MFI [2]: 21400 MFI; MFI parental ratio [2]: 0.58 fold
ICOSL-Fc N52A/N57F/Q100S (Fc fusion) DTQEKEVRAMVGSDVELSCACPEGSRFDLNDVYVYWQTSESKTVVTYHIPQASSLEFVDSRYRNRALMSPAGMLRGDFSLRLFNVTPQDEQKFHCLVLSSSLGFQEVLSVEVTLHVAANFSVPVVSAPHSPSQDELTFTCTSINGYPRPNVYWINKTDNSLLDQALQNDTVFLNMRGLYDVVSVLRIARTPSVNIGCCIENVLLQQNLTVGSQTGNDIGERDKITENPVSTGEKNAAT	–	MFI (CD28 (human)): 157000 MFI; MFI ratio to WT (ΔWT) (CD28 (human)): 7 fold; MFI [1]: 255000 MFI; MFI ratio to WT (ΔWT) [1]: 0.77 fold; MFI [2]: 242000 MFI; MFI ratio to WT (ΔWT) [2]: 1.14 fold
ICOSL-Fc N52A/N57H/Q100S (Fc fusion) DTQEKEVRAMVGSDVELSCACPEGSRFDLNDVYVYWQTSESKTVVTYHIPQASSLEHVDSRYRNRALMSPAGMLRGDFSLRLFNVTPQDEQKFHCLVLSSSLGFQEVLSVEVTLHVAANFSVPVVSAPHSPSQDELTFTCTSINGYPRPNVYWINKTDNSLLDQALQNDTVFLNMRGLYDVVSVLRIARTPSVNIGCCIENVLLQQNLTVGSQTGNDIGERDKITENPVSTGEKNAAT	–	MFI (CD28 (human)): 159000 MFI; MFI ratio to WT (ΔWT) (CD28 (human)): 7.1 fold; MFI [1]: 321000 MFI; MFI ratio to WT (ΔWT) [1]: 0.97 fold; MFI [2]: 305000 MFI; MFI ratio to WT (ΔWT) [2]: 1.44 fold
ICOSL ECD-Fc N52Q/N84Q/N119Q/N168Q (Fc fusion) DTQEKEVRAMVGSDVELSCACPEGSRFDLNDVYVYWQTSESKTVVTYHIPQQSSLENVDSRYRNRALMSPAGMLRGDFSLRLFQVTPQDEQKFHCLVLSQSLGFQEVLSVEVTLHVAAQFSVPVVSAPHSPSQDELTFTCTSINGYPRPNVYWINKTDNSLLDQALQQDTVFLNMRGLYDVVSVLRIARTPSVNIGCCIENVLLQQNLTVGSQTGNDIGERDKITENPVSTGEKNAAT	–	MFI [1]: 3300 MFI
